Stoichiometry N data for one substance are collected here from PMC9852587.

The target in the experiment is His-SYMREM1 (Medicago truncatula). The experiment in a line: SEC; analytical gel filtration of fresh recombinant His-SYMREM1, calibrated with standard proteins; apparent molecular weight compared with the calculated size of a dimer.

On to His-SYMREM1 (natural protein), for which the stoichiometry N is 2.

As a reminder, the stoichiometry N is a count of units in the complex or per binding partner.
